Reference: patent US20210030857A1 (NGM BIOPHARMACEUTICALS, published 2021)

T1: human beta klotho protein (soluble, used in Biacore) (human, UniProt Q86Z14 53-997, limits assumed)
T1 construct: also called HuKLB; huKLB
T1 sequence: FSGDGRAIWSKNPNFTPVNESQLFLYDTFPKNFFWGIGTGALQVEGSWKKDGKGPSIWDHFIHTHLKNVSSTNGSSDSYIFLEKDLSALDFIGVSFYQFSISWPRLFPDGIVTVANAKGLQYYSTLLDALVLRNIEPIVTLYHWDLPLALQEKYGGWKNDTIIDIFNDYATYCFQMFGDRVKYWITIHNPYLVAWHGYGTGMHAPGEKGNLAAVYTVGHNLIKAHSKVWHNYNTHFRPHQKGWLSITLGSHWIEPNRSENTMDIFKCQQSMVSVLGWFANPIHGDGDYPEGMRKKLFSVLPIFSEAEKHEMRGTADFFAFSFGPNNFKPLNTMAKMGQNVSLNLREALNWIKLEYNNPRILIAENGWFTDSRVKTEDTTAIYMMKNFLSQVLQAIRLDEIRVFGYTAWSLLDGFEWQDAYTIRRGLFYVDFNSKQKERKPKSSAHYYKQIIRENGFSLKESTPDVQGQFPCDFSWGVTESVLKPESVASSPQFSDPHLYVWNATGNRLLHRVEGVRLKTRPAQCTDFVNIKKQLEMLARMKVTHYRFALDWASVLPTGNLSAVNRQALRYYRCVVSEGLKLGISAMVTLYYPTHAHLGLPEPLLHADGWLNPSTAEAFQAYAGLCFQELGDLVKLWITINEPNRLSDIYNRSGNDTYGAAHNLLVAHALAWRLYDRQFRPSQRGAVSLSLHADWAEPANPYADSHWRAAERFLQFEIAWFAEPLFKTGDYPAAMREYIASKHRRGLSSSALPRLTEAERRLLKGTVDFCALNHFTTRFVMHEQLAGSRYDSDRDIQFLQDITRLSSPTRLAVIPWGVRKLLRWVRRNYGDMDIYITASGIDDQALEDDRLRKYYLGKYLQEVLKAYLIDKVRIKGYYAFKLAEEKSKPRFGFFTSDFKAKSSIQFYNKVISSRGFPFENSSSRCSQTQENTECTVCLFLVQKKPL

T2: cynomolgus monkey beta klotho protein (soluble, used in Biacore) (cynomolgus monkey (Macaca fascicularis), UniProt Q86Z14 53-996 (human entry), limits assumed)
T2 construct: Protein in solution; also called Cyno KLB; cyKLB
T2 chain: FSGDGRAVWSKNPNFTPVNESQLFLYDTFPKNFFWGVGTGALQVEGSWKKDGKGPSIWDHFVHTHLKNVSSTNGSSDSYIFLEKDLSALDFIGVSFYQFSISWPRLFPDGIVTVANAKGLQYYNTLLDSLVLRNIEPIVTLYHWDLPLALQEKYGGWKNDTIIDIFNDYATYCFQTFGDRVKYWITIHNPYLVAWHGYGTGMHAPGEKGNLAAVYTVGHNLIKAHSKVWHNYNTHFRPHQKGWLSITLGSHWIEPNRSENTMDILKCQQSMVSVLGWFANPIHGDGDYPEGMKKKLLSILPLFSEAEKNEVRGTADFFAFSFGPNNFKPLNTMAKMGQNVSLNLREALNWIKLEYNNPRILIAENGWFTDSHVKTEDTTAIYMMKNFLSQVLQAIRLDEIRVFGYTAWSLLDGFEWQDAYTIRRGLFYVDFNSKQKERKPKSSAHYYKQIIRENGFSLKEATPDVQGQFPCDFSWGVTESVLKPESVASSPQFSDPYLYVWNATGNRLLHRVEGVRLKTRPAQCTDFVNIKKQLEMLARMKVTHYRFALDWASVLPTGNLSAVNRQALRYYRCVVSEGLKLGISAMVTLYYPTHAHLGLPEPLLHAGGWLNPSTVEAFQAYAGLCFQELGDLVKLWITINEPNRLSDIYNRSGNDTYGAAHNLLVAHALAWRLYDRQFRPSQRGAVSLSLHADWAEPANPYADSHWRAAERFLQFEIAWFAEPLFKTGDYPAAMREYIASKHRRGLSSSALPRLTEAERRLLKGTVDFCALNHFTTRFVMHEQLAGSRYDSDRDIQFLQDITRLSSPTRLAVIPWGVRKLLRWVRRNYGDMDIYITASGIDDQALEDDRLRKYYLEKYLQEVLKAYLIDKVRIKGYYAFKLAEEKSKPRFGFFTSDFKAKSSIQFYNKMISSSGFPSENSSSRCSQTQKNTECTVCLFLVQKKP


Columns and labels:
[1] = molecular target: T1, human beta klotho protein (soluble, …); test: Biacore SPR, antibody captured on anti-mouse Fc, KLB as analyte (1.56-25 nM), 25 C
Description: (§1) Binding affinity measurements were also made in additional Biacore based assays. For example, equilibrium dissociation constant (KD) measurements were carried out with purified antibodies to evaluate their binding to human beta klotho and cyno beta klotho. As mentioned above, anti-mouse Fc antibody (Sigma-Aldrich, St. Louis, Mo.) was immobilized on all four flow cells of a CM5 chip using amine coupling reagents (GE Healthcare LifeSciences, Piscataway, N.J.). Purified antibodies were captured (˜100 RUs) on flow cells 2, 3 and 4 using flow cell 1 as a reference. This was followed by injection of different concentrations of human or cyno beta klotho (1.56 nM to 25 nM, two-fold dilutions in PBS-P buffer) at a flow rate of 70 μL/min and the binding kinetics were evaluated at 25° C.

[2] = molecular target: T2, cynomolgus monkey beta klotho protein …; test: as above
Description: as §1

[3] = molecular target: human beta klotho / human FGFR1c receptor complex on cells (human, UniProt Q86Z14 1-1044; P11362 22-822); test: cell-based or functional assay

Binder	Kd [1]	Kd [2]	HEK293 huKLB/R1c reporter assay EC50, Experiment - A [3]	HEK293 huKLB/R1c reporter assay EC50, Experiment - B [3]
antibody 1C17 (antibody, V domains shown, Murine monoclonal antibody) VH: QVQLQESGPGLVKPSQSLSLTCSVTGYSITSGYYWNWIRQFPGNKLEWMGYINYDGNSNYTPSLKNRISITRDTSKNQFFLKLNSVTPEDTATYYCARKGAYYSNYDSFDVWGTGTTVTVSS VL: DIKMTQSPSSMYASLGERVTITCKASQDINSYLSWVQQKPGKSPKTLIYRANRLVDGVPSRFSGSGSGQDYSLTISSLEYEDMGIYYCLQYDEFPFTFGSGTKLEIK	0.89 nM	3.1 nM	–	–
antibody 5F7 (antibody, V domains shown, Murine monoclonal antibody) VH: QVQPQESGPELVKPGALVKISCKASGYTFTRYDINWVKQRPGQGLEWIGWIYPGDISTKYNEKFKGKATLTADKSSSTAYMQLNSLTSENSAVYFCARSDYYGSRSFVYWGQGTLVTVSA VL: DIVLTQSPASLAVSLGQRATISCRASKSVSTSGYSYMHWYQQKPGQPPKLLIYLASNLESGVPARFSGSGSGTDFTLNIHPVEEEDAATYYCQHSRELPYTFGGGTKVEIK	1.7 nM	2.5 nM	–	–
antibody 1D19 (antibody, V domains shown, Murine monoclonal antibody) VH: QVQPQESGPELVKPGALVKISCKASGYTFTRYDINWMKQRPGQGLEWIGWIYPGDSSTKFNENFKDKATLTADKSSSTAYMQLSSLTSENSTVYFCARSDYYGSRSFTYWGQGTLVTVSA VL: DIVLTQSPASLAVSLGQRATISCRASKSVSTSGYSYMHWYQQKPGQPPKLLIYLASNLESGVPARFSGSGSGTDFTLNIHPVEEEDAATYYCQHSRELPYTFGGGTKLEIK	1.25 nM	2.9 nM	0.62 nM	–
antibody 3L3 (antibody, V domains shown, Murine monoclonal antibody) VH: QVQPQESGPELVKPGTLVKISCKASGYTFTSYDINWVKQRPGQGLEWIGWIYPGDGSPKYDEKFKGKATLTADKSSSTAYMQLSSLTSENSAVYFCARSDYYGSRSFVYWGQGTLVTVSA VL: DIVLTQSPASLAVSLGQRATISCRASKSVSTSGYSYVHWYQQKPGQPPKLLIYLASNLESGVPARFSGRGSGTDFTLNIHPVEEEDAATYYCQHSGELPYTFGGGTKLEIK	1.14 nM	2.2 nM	0.773 nM	–
antibody 2L12 (antibody, V domains shown, Murine monoclonal antibody) VH: QVQLQQSGPELVKPGALVKISCKASGYTFTRYDINWVKKRPGQGLEWIGWIYPGDDSTKYNEKFKGKATLTADKSSSTAYMQLSSLTSENSAVYFCARSDYYGSRSFVYWGQGTLVTVSA VL: DIVLTQSPASLPVSLGQRATISCRASKSVSTSGYSYLHWYQQKPGQPPKLLIYLASNLESGVPARFSGSGSGTDFTLNIHPVEEEDAATYYCQHSGELPYTFGGGTKLEIK	0.22 nM	1.42 nM	0.373 nM	–
antibody 3N20 (antibody, V domains shown, Murine monoclonal antibody) VH: QVQLQESGAELARPGASVKLSCKVSGYIFTNYGISWVKQRTGQGLEWIGEIYPRSGNTYYNEKFKGKATLTADMSSSTAYMDLRSLTSEDSAVYFCARHWDGVLDYFDYWGQGTSLTVSS VL: DIVMTQSPSSLSVSAGEKVTMSCKSSQSLLNSGNQKNYLAWYQQKPGQPPKLLIYGASTRESGVPDRFTGSGSGTDFTLTISSVQAEDLAVYYCLNDHSYPFTFGAGTKLELK	3.3 nM	3.52 nM	0.527 nM	–

The next lines start with the values.

Kd [1]	Kd [2]	HEK293 huKLB/R1c reporter assay EC50, Experiment - A [3]	HEK293 huKLB/R1c reporter assay EC50, Experiment - B [3]	Binder
–	0.72 nM	0.102 nM	0.0342 nM	antibody 5H23 (antibody, V domains shown, Murine monoclonal antibody from hybridoma; also called 5H23-Alexa647 (labelled form)) VH: QVQLQQSGPELVKPGALVKISCKASGYTFTSYDINWVKQRPGQGLEWIGWIYPGDGSTKYNEKFKGKATLTADKSSRTAYMQLSSLTSENSAVYFCARSDYYGSRSFAYWGQGTLVTVSA VL: DIVLTQSPASLAVSLGQRATISCRASKSVSTSGYVYMHWNQQKPGQPPKLLIYLASYLESGVPARFSGSGSGTDFTLNIHPVEEEDAAIYYCQHSRDLTFPFGGGTKLEIK
1.2 nM	2.4 nM	–	–	antibody 5C23 (antibody, V domains shown, Murine monoclonal antibody) VH: QVQPQESGPELVKPGALVKISCKASGYTFTRYDINWVKKRPGQGLEWIGWIYPGDGSTKYNEKFEGKATLTADKSSSTAYMQLSSLTSENSAVYFCARSDYYGSRSFVYWGQGTLVTVSA VL: DIVLTQSPDSLTVSLGQRATISCRASKSVSTSGYSYMHWYQQKPGQPPKLLIYLASNLESGVPARFSGSGSGTDFTLNIHPVEEEDAATYYCQHSRELPYTFGGGTKLEIK
0.26 nM	0.44 nM	0.6 nM	0.0783 nM	antibody 4P5 (antibody, V domains shown, Murine monoclonal antibody) VH: QVQLQQSGPELVKPGALVKISCKASGYTFTRYDINWVKKRPGQGLEWIGWIYPGDDSTKYNEKFKGKATLTADKSSSTAYMQLSSLTSENSAVYFCARSDYYGSRSFVYWGQGTLVTVSA VL: DILLTQSPASLAVSLGQRATISCRASKSVSTSGYSYMHWYQQKPGQPPKLLIYLASNLESGVPARFSGRGSGTDFTLNIHPVEEEDAATYYCHHSGELPYTFGGGTKLEIK
